Test results: patent publication US8624010 (Amgen, dated 2014)

B1: B7.2 (ligand)
chain: VSVETQAYFNGTAYLPCPFTKAQNISLSELVVFWQDQQKLVLYEHYLGTEKLDSVNAKYLGRTSFDRNNWTLRLHNVQIKDMGSYDCFIQKKPPTGSIILQQTLTELSVIANFSEPEIKLAQNVTGNSGINLTCTSKQGHPKPKKMYFLITNSTNEYGDNMQISQDNVTELFSISNSLSLSFPDGVWHMTVVCVLETESMKISSKPLNFTQEFPSPQTYWK
notes: also called CD86; B7.2-Fc; not shown: The Fc part (detected with anti-human Fc) and any linker
B2: murine CRP1 (CD28 related protein-1), membrane-bound (receptor)
chain: EINGSADHRMFSFHNGGVQISCKYPETVQQLKMRLFREREVLCELTKTKGSGNAVSIKNPMLCLYHLSNNSVSFFLNNPDSSQGSYYFCSLSIFDPPPFQERNLSGGYLHIYESQLCCQLKLWLPVGCAAFVVVLLFGCILIIWFSKKKYGSSVHDPNSEYMFMAAVNTNKKSRLAGVTS
notes: also called mCRP1; receptor for B7RP1
B3: murine B7RP1 (B7 related protein-1), membrane-bound (ligand)
chain: ETEVGAMVGSNVVLSCIDPHRRHFNLSGLYVYWQIENPEVSVTYYLPYKSPGINVDSSYKNRGHLSLDSMKQGNFSLYLKNVTPQDTQEFTCRVFMNTATELVKILEEVVRLRVAANFSTPVISTSDSSNPGQERTYTCMSKNGYPEPNLYWINTTDNSLIDTALQNNTVYLNKLGLYDVISTLRLPWTSRGDVLCCVENVALHQNITSISQAESFTGNNTKNPQETHNNELKVLVPVLAVLAAAAFVSFIIYRRTRPHRSYTGPKTVQLELTDHA
notes: also called mB7RP1; ligand for CRP1

Key:
[1] = target: B3; assay: ACAS cell surface display assay, Fc fusion protein on transfected cells, FITC anti-human Fc detection
Method: (§1) Figure 5: FIG. 5. Interaction of CRP1-Fc and B7RP1-Fc fusion proteins with membrane-bound proteins expressed in COS-7 cells. COS-7 cells transiently transfected with pcDNA3/CRP1, pcDNA3/B7RP1, or pcDNA3 vector alone. CHO D-cells were transfected with psDRα/hCD28 and stably expressed human CD28 (hCD28). Cells expressing membrane-bound CRP1, B7RP1, or hCD28, are represented in rows as indicated at the left side of the panel. Fc fusion proteins were incubated with the plate-bound cells in columns as indicated at the top of the panel. After incubation, cells were washed, and bound Fc fusion proteins were detected using an anti-human Fc antibody and ACAS (Adherent Cell Analysis and Sorting; ACAS Ultima, Meridian Instruments, Inc., Okemos, Mich.) analysis. Figure 6A: FIG. 6. FACS (Fluorescence-Activated Cell Sorter) analysis of expression of the receptor for B7RP1 (putatively, CRP1) on activated CD4+ and CD8+ T-cells. Mouse splenocytes were activated with PMA and ionomycin for 12 hours. B7RP1-Fc fusion protein, control Fc protein (Mock-Fc), or PBS (no stain), were incubated with the cells, washed, and subsequently incubated with goat-anti-human Fc-FITC conjugated antibody(GaHuFc-FITC) as indicated at the bottom of each panel. […]

[2] = target: T1, murine B7RP1-Fc fusion protein (murine; human, UniProt P01857-1 96-330 = IgG part); assay: flow cytometry on PMA/ionomycin-activated mouse splenocytes, lymphocyte gate; detection with goat anti-human Fc-FITC; no PE stain; receptor on the cells is putatively CRP1
T1 construct: domain: carboxy terminal 235 amino acids of the human Fc gene (isotype IgG1); Made in 293T cells and purified on Protein A. The construct encodes residues 1-269; also called mB7RP1-Fc; muB7RP1-Fc
Method: The B7RP1-Fc fusion protein was utilized to detect cells that expressed receptors to B7RP1, presumably including the CRP1 protein (see Example 6), by FACS analysis. Spleens were removed from female C57/Black 6 mice, ground on 100 micron mesh filters to release the lymphocytes, passed through 70 micron filters, and then washed in 50 ml of RPMI-1640. They were pelleted at 1500 rpm, resuspended in fresh RPMI, mixed to break up the clumping cells, and passed through a 40 micron filter. T-cells to be activated were seeded into 6 well plates in RPMI-1640, 5% FBS, 1×PSG, PMA, ionomycin, and incubated at 37° C., 5% CO2 overnight. T-cell activation was checked by visual confirmation after 12 hr.
(§2) Activated spleen cells for immunostaining were washed in PBS, 0.5% BSA (Path-ocyte 4, ICN Pharmaceuticals) wash buffer, resuspended, and then aliquoted in 100 µl volumes. 15 µg/ml of either the CRP1-Fc fusion protein or the B7RP1-Fc fusion protein was added (1.5 µg/sample) as appropriate, and then the mixtures were incubated on ice for 30 min with occasional mixing. The cells were washed twice in 5.0 ml of wash buffer. Binding of the fusion proteins was visualized with 2 µg of goat-anti-human (GaHuFc-FITC) conjugated secondary antibody in a 100 µl volume for cell staining. […]

B7.2 = target: B1; assay: ACAS cell surface display assay, Fc fusion protein on transfected cells, FITC anti-human Fc detection
Method: as §1

[3] = target: T2, murine CRP1-Fc fusion protein (murine; human, UniProt P01857-1 96-330 = IgG part); assay: flow cytometry on non-activated mouse splenocytes, double stain with CD45R-PE; detection with goat anti-human Fc-FITC; ligand on the cells is presumably B7RP1
T2 construct: domain: carboxy terminal 235 amino acids of the human Fc gene (isotype IgG1); Made in 293T cells and purified on Protein A. The construct encodes residues 1-147; also called mCRP1-Fc
Method: PE conjugated cell marker antibody to CD45R (CD45R is a B-cell marker) or isotype control antibody (rat isotype), or PBS (no stain), were added as indicated at the left side of each individual panel.
as §2, with “staining. Cell marker antibodies conjugated with PE were added with the GaHUFc-FITC, as well as control isotype-PE conjugated antibody controls where indicated (rat isotype).” for “staining.”
The CRP1-Fc fusion protein was utilized to detect cells that expressed ligands to CRP1, presumably including the B7RP1 protein (see Example 8), by FACS analysis (FIG. 7). Splenocytes were prepared as in Example 8, except the 12 hr T-cell activation step was omitted and the cells were directly analyzed. […] Cells were detected that expressed both the CD45R B-cell marker and the putative ligands for CRP1, presumably including B7RP1 (Example 8).

B1
binding result [1]: no binding

B2
binding result [2]: binds | binding result (B7.2): no binding

B3
binding result [3]: binds
